Data taken from US20090324700A1, “METHODS AND COMPOSITIONS FOR THE INHIBITION OF CATHEPSINS” (priority 2003, published 2009).

Columns and labels:
human cathepsin K = target: T1, human cathepsin K (Homo sapiens, UniProt P43235); assay: Protease specificity of Spi2A: cathepsin K; format: biochemical; details: protease 20 nM, Spi2A 200 nM, 1 h at 37° C; FIG. 6B
T1 construct: made in house
T1 sequence (P43235 115-329): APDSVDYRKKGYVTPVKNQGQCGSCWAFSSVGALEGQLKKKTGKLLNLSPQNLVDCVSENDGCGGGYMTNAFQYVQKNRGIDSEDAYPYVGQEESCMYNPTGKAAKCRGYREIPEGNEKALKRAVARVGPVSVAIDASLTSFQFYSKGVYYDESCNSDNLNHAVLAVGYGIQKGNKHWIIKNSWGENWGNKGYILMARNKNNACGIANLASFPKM
Method: Protease specificity of Spi2A. RelA^−/− MEFs were transduced with retrovirus encoding Spi2A with a C-terminal 3×FLAG epitope tag and Spi2A-3×FLAG purified using a method described previously (Cooley et al., 1998). Briefly, cells (3×10^9) were lysed and Spi2A-3×FLAG (75 μg) purified by batch Q-Fast Flow ion-exchange chromatography (Pharmacia Biotech) after elution at 160-220 mM NaCl followed by anti-FLAG antibody columns, performed according to manufacturer's instructions (Sigma-Aldrich). Spi2A-3×FLAG was dialysed into PBS and stored as aliquots at −80° C. until needed.
Proteases were purchases from the manufacturers (Calbiochem or Athens Research and Technology) except granzymes A and B which were purified as described (Hanna et al., 1993) and cathespin V and K, which were purified as described (Bromme et al., 1999; Linnevers et al., 1997). Proteases (20 nM) were incubated in the appropriate assay buffer with Spi2A at 200 nM (at least 10-fold excess of inhibitor to maintain pseudo-first order conditions) for 1 h at 37° C. Control samples included only the enzyme, without the inhibitor. At the end of 1 h protease activity was assayed. […] Substrate hydrolysis was measured in a fluorescence microtiter plate reader (Spectramax Gemini XS, Molecular Devices). Percentage inhibition was calculated from the residual enzyme activity compared to no Spi2A controls. […]

[1] = test system: secondary anti-LCMV CD8 cells; details: mouse, in vivo
cathepsin B = target: T2, cathepsin B (Mus musculus, UniProt P10605); assay: Cathepsin B activity in crude cytoplasmic extracts, RelA^−/− MEFs; format: cell-based; details: TNF-α 0.2 ng/ml, CHX 0.1 μg/ml; FIG. 1C, 7A
T2 construct: endogenous in cells; host or cells: RelA-/- or RelA+/+ MEFs (retrovirally transduced with GFP, RelA, Spi2A or antisense Spi2A)
T2 sequence (P10605 80-333): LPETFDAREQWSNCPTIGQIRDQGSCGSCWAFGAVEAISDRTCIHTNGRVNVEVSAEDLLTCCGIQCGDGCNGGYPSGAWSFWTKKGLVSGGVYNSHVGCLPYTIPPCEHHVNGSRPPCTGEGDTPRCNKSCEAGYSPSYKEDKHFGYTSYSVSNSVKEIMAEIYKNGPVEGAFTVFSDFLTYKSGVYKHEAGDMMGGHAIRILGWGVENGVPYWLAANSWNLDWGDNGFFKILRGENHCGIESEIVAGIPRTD
Method: Survival Assays. Although RelA^−/− MEFs are markedly more sensitive to TNF-α compared to RelA^+/+ MEFs, low levels of CHX (0.1 μg/ml) were used in the survival assays. This was to suppress any protective activity of constitutively active non-RelA NF-κB molecules that are present in RelA^−/− MEFs (FIG. 4). Thus, RelA^−/− MEFs were treated with CHX and TNF-α (R&D) and the number of live GFP-positive adherent cells was counted by flow cytometry after 16 h, if not indicated otherwise. Live cells were defined as those that excluded propidium iodide (PI-negative) and had the appropriate size, as defined by forward and side scatter characteristics (Coligan et al., 1995). For RelA^+/+ MEFs, TNF-α-cytotoxicity was determined after 16 h with CHX (10 μg/ml), if not indicated otherwise. Cathepsin B activity was inhibited by a 1 h pre-treatment of MEFs with CA-074 Me (30 μM) (Peptide Institute). […] RelA^−/− MEFs were treated with (10-50 μM) sphingosine (Calbiochem) and the number of live GFP-positive adherent cells was counted by flow cytometry after 2 h.
Death effector assays. Death effector pathways were induced in […] MEFs by treatment TNF-α (0.2 ng/ml) and CHX (0.1 μg/ml). […] Protein concentration was determined by Lowry assay (DC-protein assay kit, Biorad). […]
Colorimetric assays for capases were performed in reaction buffer (50 mM HEPES, pH 7.4, 100 mM NaCl, 10 mM DTT, 1 mM EDTA, 10% glycerol, 0.1% CHAPS) at 37° C. on crude cytoplasmic extracts using p-Nitoaniline (pNA)-labeled substrates (Calbiochem) specific for caspases 3 and 7 (Ac-DEVD-pNA), caspase 8 (Ac-IETD-pNA), caspase 9 (Ac-LEHD-pNA), each at 0.2 mM. Specific activity was determined by subtracting the apparent activity detected after 1 h pre-incubation of extract with the pan-caspase inhibitor Z-VAD.fmk at 50 μM (ICN Biomedicals Inc), then normalizing for the amount of protein. […] Specific activity was determined by subtracting the apparent activity detected after 30 min pre-incubation of extract at 37° C. with the cathespin B inhibitor CA-074 Me at 30 μM (Peptide Institute) then normalizing for the amount of protein.

B1: Spi2A: murine Spi2A polypeptide, SEQ ID NO:2; purified as C-terminal 3×FLAG protein or expressed from MIGR1 retrovirus in cells and bone-marrow chimeras (protein, listed as Mus musculus)
chain: MAGVSPAVFGCPDVTLGRNTAVREVQENVTSVDSLTLVSSNTDFAFSLYRKLVLKNPDENVVFSPFSICTALALLSLGAKSNTLKEILEGLKFNLTETPEPDIHQGFRYLLDLLSQPGNQVQISTGSALFIEKHLQILAEFKEKARALYQAEAFTADFQQPLKATKLINDYVSNHTQGKIKELISGLKESTLMVLVNYIYFKGKWKNPFDPNDTFKSEFYLDEKRSVIVSMMKTGYLTTPYFRDEELSCTVVELKYTGNASAMFILPDQGRMQQVEASLQPETLRKWKNSLKPRMIHELRLPKFSISTDYSLEHILPELGIREVFSTHADLSAITGTKDLRVSQVVHKAVLDVAEKGTEAAAATGMAGVGCCAVFDFLEIFFNRPFLMIISDTKAHIALFMAKVTNPERSTNFPNGEGASSQRLESKRLCFGDPLCLIGQ
modifications: C-terminal 3xFLAG tag
notes: purified as C-terminal 3×FLAG protein or expressed from MIGR1 retrovirus in cells and bone-marrow chimeras
Inhibition of protease by Spi2A (percentage inhibition) (human cathepsin K): extended to all of the lysosomal, papain-like proteases that were examined | Number of anti-LCMV CD8 cells per spleen GFP^− [1]: 45.94 ± 7.55 (n = 4) ×10^−5 | Percentages and absolute numbers of secondary anti-LCMV CD8 cells (recall response) [1]: significantly increased | proportional change of anti-LCMV CD8 cells compared to the GFP control [1]: (417%) | Cytosolic cathepsin B activity after TNF-α, retrovirally transduced cells (cathepsin B): inhibited the induction
